Read-outs that look alike come from different tables or passages of the source.
Columns and labels:
[1] = ^212Pb-PSMA-OM-00214 biodistribution study in xenograft-bearing mice; assay type: in vivo, R2G2 mice; conditions: male, R2G2, mouse, iv, 10 uCi, total radioactivity, labeled with 212Pb, 10 μCi per 10 ng of conjugate, one 10 μCi dose i.v.
Protocol: (§1) A study was carried out in order to assess the biodistribution of PSMA-OM-00214, labeled with ^212Pb at a specific activity of 10 μCi per 10 ng of conjugate, in R2G2™ mice bearing a human prostate cancer cell tumor.
(§2) 15 male R2G2™ mice, 7-8 weeks old and weighting 33.9±3.5 g at study initiation, were injected subcutaneously, into the right flank, with 10^6 LNCaP cells in 100 μL of RPMI-1640 medium/Matrigel™ (v/v: 1/1). The tumors were let grow until they reached 200-300 mm^3 (as determined by the formula: volume=0.5×length×width^2).
(§3) Then animals were randomized based on tumor size and a group of 6 mice received intravenously (into a tail vein) one 10 μCi dose of ^212Pb-PSMA-OM-00214 (10 μCi per 10 ng of conjugate, 100 μL injection volume).
(§4) The mice were sacrificed at 4 hour post-dose injection.
(§5) Blood, bladder, reproductive organs, small intestine, colon with caecum, spleen, pancreas, kidneys, stomach, liver, lung, heart, brain, femoral bone, abdominal fat, skeletal muscle, tail (as injection site) and LNCaP tumor were collected from each sacrificed mouse, weighted and transferred to individual tubes for automatic gamma counter.
(§6) The tubes were counted for two min. The background was automatically subtracted from the counts. A standard consisting of 5 μL of the solution injected to the mice was also counted for each group of mice and used for decay correction.
(§7) The percent injected dose per gram, denoted % ID/g, was calculated for each organ collected (mean±standard deviation).

[2] = test system: subcutaneous LNCaP tumors; assay: as above; assay type: in vivo, R2G2 mice; conditions: labeled with 212Pb, one 10 μCi dose i.v., 4 hours post-injection
Protocol: as §1, §2, §3, §4, §5, §6, §7

[3] = test system: subcutaneous LNCaP tumors; assay: Comparative biodistribution study in xenograft-bearing mice; assay type: in vivo, athymic nude mice; conditions: both labeled with 212Pb, one 10 μCi dose i.v., at 1 hour, 4 hours and 24 hours post-dose injection
Protocol: A study was carried out in order to compare the biodistribution of PSMA-OM-00214, labeled with ^212Pb at a specific activity of 10 μCi per 10 ng of conjugate, in athymic nude mice bearing a human prostate cancer cell tumor with that of a conjugate, denoted hereinafter “DOTAM-PSMA-617”, also labeled with ^212Pb and differing from PSMA-OM-00214 in that it comprises only one PSMA ligand instead of two.
Three batches of male athymic nude mice, 7-8 weeks old and weighting 27.90±2.6 g for the first batch, 27.90±2.5 g for the second batch and 29.50±2.5 g for the third batch, at study initiation, were injected subcutaneously, into the right flank, with 10^6 LNCaP cells in 100 μL of RPMI-1640 medium/Matrigel™ (v/v: 1/1). The tumors were let grow until they reached 200-300 mm^3.
The mice were divided into a plurality of groups each comprising 3 to 14 mice.
In any case, each mouse received intravenously either one 10 μCi dose of ^212Pb-PSMA-OM-00214 (10 μCi per 10 ng of conjugate, 100 μL injection volume) or one 10 μCi dose of ^212Pb-DOTAM-PSMA-617 (10 μCi per 10 ng of conjugate, 100 μL injection volume). […]
The tubes were counted for two min. […] Standards consisting of 5 μL of the solutions injected to the mice were also counted and used for decay correction.
as §7

SMILES: NC(=O)CN1CCN(CC(=O)NCC2CCC(C(=O)NC(Cc3ccc4ccccc4c3)C(=O)NCCCCC(NC(=O)NC(CCC(=O)O)C(=O)O)C(=O)O)CC2)CCN(CC(N)=O)CCN(CC(=O)NCC2CCC(C(=O)NC(Cc3ccc4ccccc4c3)C(=O)NCCCCC(NC(=O)NC(CCC(=O)O)C(=O)O)C(=O)O)CC2)CC1 (centres unmarked) [PSMA-OM-00214]
- tissue uptake at 4 h ([1]; LNCaP tumor, 4 hours post-injection, average, read-out: tumor uptake): > 20 %ID/g
- tissue uptake at 4 h ([1]; kidneys, 4 hours, read-out: kidney uptake): ~10 %ID/g
- tumor/kidney ratio [2]: satisfactory
- uptake in all major non-tumor tissues [2]: very low uptake
- tumor uptake and retention compared with DOTAM-PSMA-617 [3]: significantly higher
